{
  "source": "patent US9206457B2",
  "about": "“Utilization of pharmacological chaperones to improve manufacturing and purification of biologics” (Amicus Therapeutics, Inc., priority 2009, dated 2015)",
  "molecules": {"B1": {"name": "GCase: recombinant human GCase (Cerezyme®, Genzyme Corp.) (protein, UniProt P04062 40-536, looked up)", "Lysosomal acid …": "ARPCIPKSFGYSSVVCVCNATYCDSFDPPTFPALGTFSRYESTRSGRRMELSMGPIQANHTGTGLLLTLQPEQKFQKVKGFGGAMTDAAALNILALSPPAQNLLLKSYFSEEGIGYNIIRVPMASCDFSIRTYTYADTPDDFQLHNFSLPEEDTKLKIPLIHRALQLAQRPVSLLASPWTSPTWLKTNGAVNGKGSLKGQPGDIYHQTWARYFVKFLDAYAEHKLQFWAVTAENEPSAGLLSGYPFQCLGFTPEHQRDFIARDLGPTLANSTHHNVRLLMLDDQRLLLPHWAKVVLTDPEAAKYVHGIAVHWYLDFLAPAKATLGETHRLFPNTMLFASEACVGSKFWEQSVRLGSWDRGMQYSHSIITNLLYHVVGWTDWNLALNPEGGPNWVRNFVDSPIIVDITKDTFYKQPMFYHLGHFSKFIPEGSQRVGLVASQKNDLDAVALMHPDGSAVVVVLNRSSKDVPLTIKDPAVGFLETISPGYSIHTYLWRRQ", "modifications": "imiglucerase"}},
  "key": {"[1]": {"target": "T1, acid β-glucosidase (GCase; Cerezyme®) (Homo sapiens, UniProt P04062, R534H)", "T1 construct": "purchased Genzyme Corp", "T1 sequence (P04062 40-536 R534H)": "B1 Lysosomal acid … with R495H", "assay": "SYPRO Orange thermal stability assay (heat denaturation) of GCase", "type": "binding", "settings": "pH 5.2 versus pH 7.4, no chaperone", "procedure": "FIG. 4 depicts the results of a thermal stability assay that utilizes heat to induce protein denaturation, which is monitored using a SYPRO Orange dye that fluoresces upon binding to hydrophobic amino acids (which are not exposed in a folded protein). Isofagomine increases acid β-glucosidase thermostability as evident by increases in melting temperature in a dose-dependent manner. The experiment was conducted at pH 7.4.\nFIG. 8 depicts the stability of recombinant human GCase (Cerazyme®, Genzyme Corp.) at neutral pH (7.4) or acidic pH (5.2) in the presence or absence of 10 μM of IFG as determined in a thermal stability assay. The thermal stability assay utilizes heat to induce protein denaturation, which is monitored using a SYPRO Orange dye that fluoresces upon binding to hydrophobic amino acids (which are not exposed in a folded protein).\nA thermal stability experiment as generally described in Example 1 was performed on three compositions of GCase (Cerezyme®):\nA thermal stability experiment as generally described in Examples 1 and 4 was performed on three compositions of GCase (Cerezyme®):\nProtein denaturation was monitored using SYPRO Orange dye which fluoresces when bound to exposed hydrophobic amino acids."}, "[2]": {"target": "T2, recombinant human GCase (Cerezyme®) (Homo sapiens, UniProt P04062, R534H)", "T2 construct": "purchased Genzyme Corp", "T2 sequence (P04062 40-536 R534H)": "B1 Lysosomal acid … with R495H", "assay": "GCase activity in human plasma at 37° C. (4-MUG)", "type": "in vitro ADME", "settings": "human plasma, 0.5 μM GCase, no chaperone", "procedure": "FIG. 10 depicts the effects of IFG on recombinant human GCase (GCase; Cerezyme®, Genzyme Corp.) activity in human plasma at 37° C. GCase activity was evaluated to assess the ability of an ASSC to prolong the activity of GCase in human plasma over time. Cerezyme (0.5 μM) was incubated in human plasma with increasing concentrations of IFG (3 μM, 30 μM, or 100 μM) at 37° C. over 4 hours. Samples were assayed for GCase enzyme activity using 4-MU-β-glucose at 0.25, 0.5, 1, 2 and 4 hours and the residual GCase activity was expressed as % of initial activity.\nThe activity of GCase (0.5 μM; Cerazyme®) at 37° C. in human plasma was assessed for increasing concentrations of IFG (3 μM, 30 μM, and 100 μM) as a function time using the substrate 4-MUG."}},
  "note": "Numbering of substitutions follows the chain as printed.",
  "data": [
    {"molecule": "B1", "values": [
      {"measurement": "Stability of GCase at acidic versus neutral pH (thermal stability assay)", "setting": "[1]", "result": "more stable at acidic (lysosomal) pH than at neutral pH"},
      {"measurement": "Time by which GCase is completely inactive", "setting": "[2]", "result": "≤ 1", "unit": "h"},
      {"measurement": "Time by which most GCase is inactivated", "setting": "[2]", "result": "≤ 30", "unit": "min"}
    ]}
  ]
}
